Molecular target: T1, EGFP-RABL2B, Q9UNT1
T1 chain: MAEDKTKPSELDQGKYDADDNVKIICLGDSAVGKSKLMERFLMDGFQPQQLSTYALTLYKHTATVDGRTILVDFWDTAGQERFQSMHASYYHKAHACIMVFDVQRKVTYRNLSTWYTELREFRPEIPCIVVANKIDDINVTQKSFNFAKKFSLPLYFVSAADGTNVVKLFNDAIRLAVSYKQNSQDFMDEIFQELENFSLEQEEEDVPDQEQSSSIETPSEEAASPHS
Test: co-immunoprecipitation (IP anti-EGFP, Western blot anti-Myc), IP/input band quantitation
Settings: chain shown with the change; lysates from HEK293T cells; Input is 2.5% of lysate used for IP; parent: 100

B1: CD8α-(HTR6-CT)-myc, Q9R1C8 L398A; L399A; L400A (protein)
chain: MVPEPGPVNSSTPAWGPGPPPAPGGSGWVAAALCVVIVLTAAANSLLIALICTQPALRNTSNFFLVSLFTSDLMVGLVVMPPAMLNALYGRWVLARGLCLLWTAFDVMCCSASILNLCLISLDRYLLILSPLRYKLRMTAPRALALILGAWSLAALASFLPLLLGWHELGKARTSAPGQCRLLASLPYVLVASGVTFFLPSGAICFTYCRILLAARKQAVQVASLTTGTATAGQALETLQVPRTPRPGMESADSRRLTTKHSRKALKASLTLGILLSMFFVTWLPFFVASIAQAVCDCISPGLFDVLTWLGYCNSTMNPIIYPLFMRDFKRALGRFVPCVHCPPEHRASPASPSMWTSHSGARPGLSLQQVLPLPLPPNSDSDSASGGTSGLQLTAQAAAPGEATRDPPPPTRAPTVVNFFVTDSVEPEIRQHPLGSPMN
B1 showed a percent of parent of 243%.
